The text below walks through data of US20210025901A1 (CALIFORNIA INSTITUTE OF TECHNOLOGY, published 2021).

The target of assay [1] is T1, Full-length His-tagged IL-17F protein (ab167911, Abcam) (human, UniProt Q96PD4 31-163).
T1 construct: Bought protein, called 'full-length'; also called human IL-17F protein; not shown: His tag
T1 chain: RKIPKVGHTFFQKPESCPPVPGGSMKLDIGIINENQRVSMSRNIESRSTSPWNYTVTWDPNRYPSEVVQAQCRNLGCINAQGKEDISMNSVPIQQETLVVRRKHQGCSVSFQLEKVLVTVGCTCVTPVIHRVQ
Description: method not stated, FIG. 12C; biligand with PEG3 linker.

The target in assay [2] is T1, Full-length His-tagged IL-17F protein …. Description: fluorescence titration of IL17F protein (nM) against the biotinylated biligand; protocol not described for this figure; the arrow from the number points to the PEG3 entry of the legend box.
Assay [3] shares this target. The assay can be described thus: point ELISA, His-IL-17F vs His-IL-17A at 100 nM.
Assay [4] has as its target Full-length His-tagged IL-17F protein (ab167911, Abcam) (human) (UniProt Q96PD4). Description: fluorescence titration of IL17F protein (nM) against the biotinylated biligand; protocol not described for this figure.
The target of assay [5] is T2, Plasmodium falciparum Histidine Rich Protein-2 (Pf.HRP-2) (Plasmodium falciparum).
T2 construct: The construct used in the assays is not described; the whole entry is named
T2 chain: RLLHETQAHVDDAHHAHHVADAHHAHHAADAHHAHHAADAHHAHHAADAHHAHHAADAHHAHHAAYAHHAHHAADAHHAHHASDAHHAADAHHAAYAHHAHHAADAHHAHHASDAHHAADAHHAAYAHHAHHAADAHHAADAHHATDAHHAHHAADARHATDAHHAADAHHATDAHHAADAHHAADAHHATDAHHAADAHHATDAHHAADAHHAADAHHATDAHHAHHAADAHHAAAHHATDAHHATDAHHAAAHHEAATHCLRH
The assay can be described thus: method not stated, FIG. 15; two Cy(YKYYR) joined by about a 1.5 nm linker.

The target in assay [6] is T3, Full-length His-tagged IL-17A protein (ab166882, Abcam) (human, UniProt Q16552 24-155).
T3 construct: Bought protein; it may not be the whole protein; also called human IL-17A protein; not shown: His tag
T3 sequence: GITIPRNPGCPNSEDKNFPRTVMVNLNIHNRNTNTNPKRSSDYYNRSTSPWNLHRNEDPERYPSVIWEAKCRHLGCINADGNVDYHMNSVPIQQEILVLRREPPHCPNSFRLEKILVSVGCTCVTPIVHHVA
The assay can be described thus: point ELISA, IL17F or IL17A at 100 nM, mean subtracted fluorescence; protocol not described for this panel. A general note: ELISA stands for enzyme-linked immunosorbent assay.

The target in assay [7] is T3, Full-length His-tagged IL-17A protein …. Description: point ELISA: ligand on NeutrAvidin plate, His-tagged protein at 100 nM, anti-His-AP detection, subtracted fluorescence.
Assay [8] has as its target T1, Full-length His-tagged IL-17F protein …. The assay can be described thus: point ELISA, His-IL-17F vs His-IL-17A at 200 and 50 nM.
Assay [9] addresses T4, His-tagged IL-17F epitope scrambled N-terminal to click handle (C48S) (also: His6 tag, position and spacer not given here).
T4 construct: Chemically synthesized, His6 handle; residues N-terminal to C48S (FFQKPES) scrambled
T4 peptide: SQFEKFPSPPVPGGS
The assay can be described thus: point ELISA: ligand on NeutrAvidin plate, His-tagged epitope peptide at 2 uM, anti-His-AP detection, no-epitope background subtracted.

Assay [10] deals with T2, Plasmodium falciparum Histidine Rich …. The assay can be described thus: plot 'Affinity': fraction bound against [Pf.HRP2] (molar); protocol not described.

Bridge positions count the residues as written; N and C are the ends. Primed or numbered codes have the meaning given here. Ends that are not written are not given here. PEG3′ = not defined here

B1: Biotin-PEG3-Cy(RSYNK)(SEQ ID NO:28)-PEG3-Cy(RRATS)(SEQ ID NO:9) (designed binder)
peptide 1: RSYNK
peptide 2: RRATS
modifications: not fully specified (N-terminus, bridges); also: macrocycles joined by PEG3 linker (one PEGylated amino acid), attachment not given here, triazole to a chain's N/C-terminus
notes: Two macrocycles covalently joined by one PEGylated amino acid; also called biligand Cy(RSYNK)-PEG3-Cy(RRATS)
For orientation: Kd means a measure of binding affinity in units of concentration. Read a low Kd as higher affinity. One may read the EC50 as the concentration giving half of the maximal effect. Read a low EC50 as an effect from little substance. Molecule B1 returned a Kd in assay [1] of 0.25 nM. In assay [2], the EC50 was approximately 0.25 nM.

B2: Biotin-PEG3-Cy(RSYNK)(SEQ ID NO:28) (peptide)
peptide: RSYNK
modifications: triazole N-C; not fully specified (N-terminus, C-terminus); also: flanking Pra and Az4 residues, sides not given here
notes: also called PEG3-biotin-modified Cy(RSYNK)
For the molecule B2, the “selectivity for IL-17F over IL-17A” value in assay [3] was 4 ratio.

B3: Biotin-PEG3-Cy(RSYNK)(SEQ ID NO:28)-PEG5-Cy(RRATS)(SEQ ID NO:9) (designed binder)
peptide 1: RSYNK
peptide 2: RRATS
modifications: triazole (positions not given here); not fully specified (N-terminus, bridges); also: each chain triazole-cyclized macrocycle, positions not given here, macrocycles joined by PEG5 linker, attachment points not given here
The EC50 (read off the curve) is the concentration needed to bring the measured effect to its halfway point. Lower therefore signals greater potency. B3 yielded an EC50 (read off the curve) in [4] of 4 nM. This lies in the single-digit nanomolar range.

B4: YKYYR (SEQ ID NO:29) dimer (designed binder)
peptide: YKYYR
modifications: not fully specified (bridges)
notes: also called two Cy(YKYYR) PCCs linked together with about a 1.5 nm long linker; linked biligand
In assay [5], B4 had an EC50 of 20 nM.

B5: Cy(QKHGP)(SEQ ID NO:15)-PEG3-biotin (peptide)
peptide: QKHGP
modifications: triazole (positions not given here); not fully specified (N-terminus, C-terminus, bridges); also: triazole cyclization via flanking Pra and Az4 residues, order not given here, PEG3-biotin, end not given here
notes: also called PEG3-biotin-modified Cy(QKHGP)
Regarding B5, the binding result in assay [6] was “no binding (tested: 100 nM)”.

B6: Cy(TKHGP)(SEQ ID NO:16)-PEG3-biotin (peptide)
peptide: TKHGP
modifications: triazole (positions not given here); not fully specified (N-terminus, C-terminus, bridges); also: triazole cyclization via flanking Pra and Az4 residues, order not given here, PEG3-biotin, end not given here
notes: also called PEG3-biotin-modified Cy(TKHGP)
As for B6, the binding result in [7] is recorded as “no binding (tested: 100 nM)”.

B7: Biotin-PEG3-Cy(RSYNK)(SEQ ID NO:28)-PEG2-Cy(RRATS)(SEQ ID NO:9) (designed binder)
peptide 1: RSYNK
peptide 2: RRATS
modifications: triazole (positions not given here); not fully specified (N-terminus, bridges); also: each chain triazole-cyclized macrocycle, positions not given here, macrocycles joined by PEG2 linker, attachment points not given here
B7 displayed an EC50 (read off the curve) in assay [4] of 4 nM.

B8: Cy(RRATS)(SEQ ID NO:9)-PEG3-biotin (peptide)
peptide: RRATS-{PEG3′-biotin}
modifications: triazole N-C; also: flanking Pra and Az4 residues, sides not given here
notes: also called PEG3-biotin-modified Cy(RRATS)
For the molecule B8, in [8], the “selectivity for IL-17F over IL-17A” value came out at 2 ratio. For the same molecule, the binding result in assay [9] is given as “no binding (tested: 2 uM)”.

B9: Cy(RRAQS)(SEQ ID NO:10)-PEG3-biotin (peptide)
peptide: RRAQS-{PEG3′-biotin}
modifications: triazole N-C; also: flanking Pra and Az4 residues, sides not given here
notes: also called PEG3-biotin-modified Cy(RRAQS)
As for B9, the “selectivity for IL-17F over IL-17A” value in [8] is 2 ratio. Moreover, the binding result in assay [9] was “no binding (tested: 2 uM)”.

B10: cy(YKYYR)(SEQ ID NO:29)-linker-cy(GWNVDL)(SEQ ID NO:30) biligand (designed binder)
peptide 1: YKYYR
peptide 2: GWNVDL
modifications: not fully specified (bridges)
notes: also called resultant biligand
As to B10, the response in assay [10] was half-maximal at 0.542 nM (EC50).

B11: Biotin-PEG3-Cy(KKGWP)(SEQ ID NO:23) (peptide)
peptide: KKGWP
modifications: triazole N-C; not fully specified (N-terminus, C-terminus); also: flanking Pra and Az4 residues, sides not given here
notes: also called PEG3-biotin-modified Cy(KKGWP)
Turning to B11, in assay [3], the “selectivity for IL-17F over IL-17A” value was 4 ratio.
